Experimental data reported in the supplement of paper PMC9170038.

Test system: MS2 coat protein
Assay: apparent KD of MS2 coat protein; designed switch direction (-1 OFF switch, 1 ON switch): -1; higher = weaker reporter binding
Method in brief: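 Designed RNA switches sharing common flanks were transcribed on Illumina chips by stalled E. coli RNA polymerase. They were titrated with SNAP-549-labelled MS2 coat protein, from 0.7 or 1.5 nM doubling to 3 µM, in Tris-HCl pH 7.5 buffer with KCl, MgCl2, BSA, DTT, tRNA and Tween-20. Titrations ran without input, with 200 uM small-molecule ligand, or with an oligonucleotide input. The apparent KD of each design is the median over its clusters, after curve-fitting of normalised cluster fluorescence.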

[1] = Eterna round: R95, input ligand: microRNA oligo, concentration not stated
[2] = input ligand: microRNA oligo, concentration not stated
[3] = Eterna round: R95, input ligand: FMN 200 uM
[4] = Eterna round: R95, input ligand: none

Row | Sequence | apparent KD of MS2 coat protein (input ligand: FMN 200 uM) | apparent KD of MS2 coat protein (input ligand: none) | apparent KD of MS2 coat protein [1] | apparent KD of MS2 coat protein [2] | apparent KD of MS2 coat protein [3] | apparent KD of MS2 coat protein [4]
1 | UUUUACAUGCUGAGAUCCUACAUGAGGAUCACCCAUGUGGUCCGGUGACGUGAGUCACCGGACUUAGCUCGUCUUGU [salish99_S_TOV1_R5_099] (Eterna round: R97, puzzle: Sensor, turn-off variant 1) | 186 nM | 304 nM | – | – | – | –
2 | AAAAGAUGAGGAUAUAUAUGGAAUCCAAGGCAUGUGCUCUCACAUGAGGAUCACCCAUGUAGAAGGCAUCUGCC [Laxetera] (puzzle: Exclusion 2) | – | – | 9.79 nM | – | – | –
3 | ACAUGAGGAUCACCCAUGUGAAAACAAUGGCUGACUAAGAGAUAGGAUAUAUGUGCAUAUCAAACAUAGAAGGGUCAUUACUGG [Deportation 88 - Jieux - Exclusion NG 3] (Eterna round: R96, puzzle: Exclusion NG 3) | 36.1 nM | 37.2 nM | – | 25.3 nM | – | –
4 | UGUAACCUAGGAUAUACAUGAGGAUCACCCAUGUAAUGUAGUAUAGUGUGUGUAAGGUGUAGAAGGAGGGAUGU [LRO-Excl05-22-Smart Aleck] (Eterna round: R97, puzzle: Exclusion 3) | 9.76 nM | 62.9 nM | – | – | – | –
5 | CAGGCGUCUGUGCGUGGUGACAUGAGGAUCACCCAUGUUUUGCUCGUUUUGUCUUGGGCUCGGCGCCCGGGUUCGGG [-24.5, -48.6, A 9%] (Eterna round: R97, puzzle: Sensor, turn-off variant 1) | 181 nM | 208 nM | – | – | – | –
6 | GCCGAUUAAGUGAGGAUAUACCUAUGGAUACAUAGGUAGAAGGCACAUGAGGAUCACCCAUGUUCCUCAUCGGC [Fiskers BMX 4 - 11] (puzzle: Brourd's mod of Exclusion 4) | – | – | 19.3 nM | – | – | –
7 | CUGGACAGAGGAUAUUGUGCUGCUGACAUGAGGAUCACCCAUGUAUGUUAACUCGGCCGUCGAGAAGGCUGACAGG [BotMod 17 - Jieux - Exclusion 5] (Eterna round: R97, puzzle: Exclusion 5) | 14.3 nM | 19.2 nM | – | – | – | –
8 | UUUUUAUAUGAAGGAUAUACUUAACAUGAGGAUCACCCAUGUGGUGUUGUGAGUGAGUGAGUUUAGUAGAAGGUCAAUUCGUUU [JMF's solution 80] (Eterna round: R96, puzzle: Exclusion NG 2) | 823 nM | 356 nM | – | 294 nM | – | –
9 | AGUAAGCUAGGAUAUGCUUUGGGAAAGCCUUCCUUCGAUAAACUUGAGGAUCACCCAAGUAGAAGGAGCUAAAU [jl-ex2.4.48 ViennaUCT mod] (Eterna round: R97, puzzle: Exclusion 2) | 16.7 nM | 16 nM | – | – | – | –
10 | AUGAGGUUAGGAUAUACAUGAGGAUCACCCAUGUUGGAGAAGGAAGUGUAAGUAGCGAGUAGAAGGAACGGAGC [JR_Exclu3_Sub060] (puzzle: Exclusion 3) | – | – | 51.1 nM | – | 37.5 nM | 48.4 nM
11 | UAUACCCGAGGAUAUACAUGAGGAUCACCCAUGUAGUGAAAGCUCUAAGAGCGCUCAGGUAGAAGGCGGAUUAA [EX3 A.9] (Eterna round: R97, puzzle: Exclusion 3) | 24.9 nM | 18.8 nM | – | – | – | –
12 | CCGUGGCAAGGAUAUACAGAGGAGAGGAAGGCAAGAGGUGGACAUGAGGAUCACCCAUGUAGAAGGUGCAGAGC [JR_Exclu2_Sub026] (puzzle: Exclusion 2) | – | – | 124 nM | – | 130 nM | 160 nM
13 | AGAGUGUGAGGAUAUACAUGAGGAUCACCCAUGUAAUAACAGGUUACGGGCGGCACCAGUAGAAGGCACUUGUC [Eternabot (L2) Solution 22] (Eterna round: R97, puzzle: Exclusion 3) | 42 nM | 28.2 nM | – | – | – | –
14 | AAAAUUGUAGGAUAUUAGGCAGACAACAUGAGGAUCACCCAUGUCCGUGAUCUUAGGCACUGAGAAGGAUAAGCCU [Eternabot (Original) Solution 23] (Eterna round: R97, puzzle: Exclusion 5) | 147 nM | 159 nM | – | – | – | –
15 | AGUUUACAUGAGGAUCACCCAUGUGAGGAUAUGGAUUCGCUGGCCGUAGCCAGUGGAUCCAGAAGGCGCGUGAU [JL-ex1-4.29] (Eterna round: R97, puzzle: Exclusion 1) | 186 nM | 101 nM | – | – | – | –
16 | AAUACAAGCUAUUGAUCCCACAUGAGGAUCACCCAUGUUCCUGGCCGUGAGGCUAGGUAGACAAUAGCUCGUCUUAU [Sensor-V1 #43] (Eterna round: R97, puzzle: Sensor, turn-off variant 1) | 27.9 nM | 26.4 nM | – | – | – | –
17 | GCGGACUUGAACGUGAGUUCAGAGACAUGAGGAUCACCCAUGUAGGAUAUCGAUUCGAAACGAAUCGAGAAGGGCAUGGUCCGC [JL denovo 14] (Eterna round: R96, puzzle: Exclusion NG 3) | 37.4 nM | 28.8 nM | – | 21.3 nM | – | –
18 | AAAUUAGCAAGUAGGUCCGACAUGAGGAUCACCCAUGUUAGCUAAUCUAACGCUGCAUGAGAGUGCGCUCGUCUUAA [Sensor-V1 #20] (Eterna round: R97, puzzle: Sensor, turn-off variant 1) | 140 nM | 149 nM | – | – | – | –

Row | Sequence | apparent KD of MS2 coat protein (input ligand: FMN 200 uM) | apparent KD of MS2 coat protein (input ligand: none) | apparent KD of MS2 coat protein [1] | apparent KD of MS2 coat protein [2] | apparent KD of MS2 coat protein [3] | apparent KD of MS2 coat protein [4]
19 | GGUUCGAGAGUAAGGAUAUCGGUCUGCGCGAGUGACGAGAAGGUACAUGAGGAUCACCCAUGUCGAGGGAUCAC [Eternabot (L2) Solution 23] (Eterna round: R97, puzzle: Brourd's mod of Exclusion 4) | 35.8 nM | 34.9 nM | – | – | – | –
20 | GGUUGGCGAGGAUAUACAUGAGGAUCACCCAUGUGAGAGAGAAAAGUGAGAACGAAAAGUAGAAGGCGCUGACG [salish99_ex3_r3_061] (puzzle: Exclusion 3) | – | – | 65.6 nM | – | 53.5 nM | 96.2 nM
21 | AAACCGGGCGCACCUCAGUCACAUGAGGAUCACCCAUGUUCUGAGGAUAUGCAUCCAAACGGAACGCAGAAGGCGGAACGUAAC [Bibidianer] (Eterna round: R96, puzzle: Exclusion NG 3) | 10.5 nM | 13 nM | – | 8.52 nM | – | –
22 | AAUAACAGAGGAUAUACUAUUUUAUGUGUUUGUUGUUUUAAACAUGAGGAUCACCCAUGUAGAAGGCUGAAUGA [JMF 61] (puzzle: Exclusion 2) | – | – | 23.8 nM | – | – | –
23 | UAAAUGUGAGGAUAUUCGUAGAACUCGGAGACGAGUUUUACGGAGAAGGCACAUGAGGAUCACCCAUGUUCCUU [Mat - Exclusion 4 - JL Mod - D2] (Eterna round: R97, puzzle: Exclusion 4) | 169 nM | 28.6 nM | – | – | – | –
24 | GUAUCCGAGAAGGAUAUCAAUGGCCCGGACCACUGAGAAGGUCUCACAUGAGGAUCACCCAUGUCACAGGUGCA [Eternabot (Original) Solution 29] (Eterna round: R97, puzzle: Exclusion 6) | 74.1 nM | 70.3 nM | – | – | – | –
25 | AGAUCACAUGAGGAUCACCCAUGUCAGGAUAUCGUCACUGGAGCUUCGGCUCCAGUGACGAGAAGGGACAAUUA [E1/1-A3] (Eterna round: R97, puzzle: Exclusion 1) | 304 nM | 161 nM | – | – | – | –
26 | AGACAGUCAGGAUAUACAUGAGGAUCACCCAUGUUGAGAAGAGAAAGGGCAGGAAGAGGUAGAAGGGACAAGAA [JR_Exclu3_Sub034] (puzzle: Exclusion 3) | – | – | 25.7 nM | – | 21.3 nM | 29.3 nM
27 | UUAGUGUAAGGAUAUCCUAUUACGAAGUAGCAACGGUAGAGGGAGAAGGUACAUGAGGAUCACCCAUGUGUCGC [Eternabot (L2) Solution 38] (Eterna round: R97, puzzle: Exclusion 4) | 26.3 nM | 24.5 nM | – | – | – | –
28 | UUAUCCGCUGAGGAUAUUAUCACUGAGAGGUGAUGAGAAGGCGGUACAUGAGGAUCACCCAUGUCUAUGGGCAG [Ex-6 Malc#23] (puzzle: Exclusion 6) | – | – | 228 nM | – | 584 nM | 864 nM
29 | AGCUUUGGAGGAUAUUGAGCGGAAAACAUGAGGAUCACCCAUGUAAGUGGGCGAAAUGUAUAAGAAGGCCGAAGGU [Eternabot (L2) Solution 15] (Eterna round: R97, puzzle: Exclusion 5) | 205 nM | 278 nM | – | – | – | –
30 | UCUCGACAUGAGGAUCACCCAUGUCAGGAUAUUGUGUUUUGGGUUUUUUACCUUUUGGCAAGAAGGGAUGUGUG [LRO-Excl1-20] (puzzle: Exclusion 1) | – | – | 20.4 nM | – | – | –
31 | GGUGCGUUUGUGAGGAUAUGCUGGUCCUUGGAUCCGCAGAAGGCACAUGAGGAUCACCCAUGUGGUGUCGUACC [salish99_Bmod_Ex4_034] (puzzle: Brourd's mod of Exclusion 4) | – | – | 199 nM | – | – | –
32 | UGCAGACGAGGAUAUGAUAAAGAUCACAUGAGGAUCACCCAUGUAGCGUCGAUAGACGCAUCAGAAGGCGUCUGCA [E5/1-A2] (Eterna round: R97, puzzle: Exclusion 5) | 16.3 nM | 16 nM | – | – | – | –
33 | UAUCCACAUGAGGAUCACCCAUGUGAGGAUAUGAUACUAUGUACUUCGGUACAUAGUAUCAGAAGGCACAGGUC [Ex1-3: 57] (puzzle: Exclusion 1) | – | – | 20.3 nM | – | – | –
34 | UUGAUUGGUGUAGGAUAUGUAUGAGGAUCACCCAUUAAUAAAUUUUAACCACGAGGAUCACCCGUGUAGAAGGACAUUGGUUAU [pwkr exNG2 2xF5 1xFMN.21] (Eterna round: R96, puzzle: Exclusion NG 2) | 51.9 nM | 59.3 nM | – | 37.8 nM | – | –
35 | AAACCGCAUGUCAGGAUAUCCAGUCCGACUAGCUAGGAGAAGGGACAUGAGGAUCACCCAUGUUUCAUGGCUCG [Anveonat] (puzzle: Brourd's mod of Exclusion 4) | – | – | 19.6 nM | – | 37.6 nM | 19 nM
